Legend:
LARP1 LaM [1] = molecular target: T1, LARP1 LaM (UniProt Q6PKG0-3 323-410); experiment: ITC; 10 mM MES pH 6.3, 100 mM NaCl, 1 mM TCEP (HPLC and NMR buffer; ITC buffer not stated separately); ITC 293 K, NMR 25 C
LARP1 LaM [2] = molecular target: T1, LARP1 LaM; experiment: crystal structure; 1.15 A; 10 mM MES pH 6.3, 100 mM NaCl, 1 mM TCEP (HPLC and NMR buffer; ITC buffer not stated separately); ITC 293 K, NMR 25 C
LARP1 LaM [3] = molecular target: T1, LARP1 LaM; experiment: ITC; 10 mM MES pH 6.3, 100 mM NaCl, 1 mM TCEP (HPLC and NMR buffer; ITC buffer not stated separately); ITC 293 K, NMR 25 C; remark: listed apart in the source
LARP1 LaM-RRM region = LARP1 LaM-RRM region (UniProt Q6PKG0-3 323-509); experiment: as above; details: protein: recombinant
[4] = molecular target: LARP1 323-509 Y336A/F348A (UniProt Q6PKG0-3 323-509, Y336A;F348A); experiment: as above; details: protein: recombinant
[5] = molecular target: LARP1 323-509 Q333A/F348A (UniProt Q6PKG0-3 323-509, Q333A;F348A); experiment: as above; details: protein: recombinant
LARP1 LaM Y336A/F348A = LARP1 LaM Y336A/F348A (UniProt Q6PKG0-3 323-410, Y336A;F348A); experiment: as above
LARP1 LaM Q333A/F348A = LARP1 LaM Q333A/F348A (UniProt Q6PKG0-3 323-410, Q333A;F348A); experiment: as above
LARP1 LaM Q333A = LARP1 LaM Q333A (UniProt Q6PKG0-3 323-410, Q333A); experiment: as above
LARP1 LaM R345A = LARP1 LaM R345A (UniProt Q6PKG0-3 323-410, R345A); experiment: as above

AAACAA (ssRNA) [A3CA2]: binds (LARP1 LaM [1]).

AAA (ssRNA) [A3]: binds (LARP1 LaM [2]).

Work on CCCCCC (ssRNA) [C6] yielded a binding signal (LARP1 LaM [3]) greater than 200 fold weaker than A6.

For AAAAAAAAAAAAAAAAAAAAAAAAA (ssRNA) [A25], the Kd (LARP1 LaM-RRM region) was roughly 200 nM, the Kd (LARP1 LaM [1]) was less than 1000 nM and the binding result [4] was “no binding”. AAAAAAAAAAAAAAAAAAAAAAAAA (ssRNA) [A25]: no binding [5].

ACAAAA (ssRNA) [ACA4]: binds (LARP1 LaM [1]).

Work on AAAAAA (ssRNA, 3' phosphate) [A5A(p)] yielded a binding signal (LARP1 LaM [3]) of roughly 200 fold weaker than A6.

Work on GGGGGG (ssRNA) [G6] yielded a binding signal (LARP1 LaM [3]) of roughly 10 fold weaker than A6.

AACAAA (ssRNA) [A2CA3]: binds (LARP1 LaM [1]).

AAAACA (ssRNA) [A4CA] gave a binding signal (LARP1 LaM [3]) of roughly 10 fold weaker than A6.

AAAAAA (ssRNA) [A6]: binds (LARP1 LaM [1]).

AAAUAA (ssRNA) [A3UA2]: binds (LARP1 LaM [1]).

AAAAAAAAAAA (ssRNA) [A11]: binds (LARP1 LaM [1]).

With UUUUUU (ssRNA) [U6] the binding signal (LARP1 LaM [3]) was roughly 10 fold weaker than A6.

For AAAAAC (ssRNA) [A5C], the binding signal (LARP1 LaM [3]) was roughly 10 fold weaker than A6.

AAAA (ssRNA) [A4]: no binding (LARP1 LaM Y336A/F348A); binds (LARP1 LaM [1]); no binding (LARP1 LaM Q333A/F348A). For the same binder, the binding signal (LARP1 LaM Q333A) was ~20 fold weaker than wild type and the binding signal (LARP1 LaM R345A) was ~2 fold weaker than wild type.
